Experiment: yeast display, Sf9 membrane polyspecificity reagent, FACS + sequencing; frameworks hold sequencing errors
Procedure, shortened: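 A nanobody's polyreactivity label depends on the gate it was sorted from. Yeast display cells were stained with 10% biotinylated, detergent-solubilized Sf9 membrane reagent for 1 hour at 4 °C, enriched on streptavidin microbeads and sorted by FACS. The low and high (top ~1%) gates were set on anti-HA fluorescence for expression and streptavidin fluorescence for reagent binding.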

Sequence	polyreactivity (PSR sort gate)
QVQLVESGGGLVQAGGSLRLSCAASGSIFSENAMGWYRQAPGKERELVAAITGGASTNYADSVKGRFTISRDNAKNTVYLQMNSLKPEDNAVYYCNTGGPRGTTYDYWGQGTQVTVSS	low polyreactivity
QVQLVESGGGLVQAGGSLRLSCAASGSIFSEYAMGWYRQAPGKERELVAAISKSTGRTYYADSVKGRFTISRDNAKNTVYLQMNSLKPEDTAVYYCNAVRRAFIASYDYWGQGTQVTVSS	high polyreactivity
QVQLVESGGGLVQAGGSLRLSCAASGSIFSFYAMGWYRQAPGKEREFVAAITISDDSTYYADTVKGRFTISRDNAKNTVYLQMNSLNPEDTAVYYCNDRYLSWYFKYLYDYWGQGTQVTVSS	low polyreactivity
QVQLVESGGGLVQAGGSLRLSCAASGSIFSGNAMGWYRQAPGKERELVAAITSSGGSTYYADSVKGRFTISRDNAKNTVYLQMNSLKPEDTAVYYCAKDYYSKHFPIYDYWGQGTQVTVSS	low polyreactivity
QVQLVESGGGLVQAGGSLRLSCAASGSIFSGNAMGWYRQAPGKERELVADITFSGSSTYADSVKGRFTISRDNAKNTVYLQMNSLKPEDTAVYYCAKKRPGFLRYGSIGEFQYDYWGQGTQVTVSS	low polyreactivity
QVQLVESGGGLVQAGGSLRLSCAASGSIFSGNEMGWYRQAPGKDSELVATISWSGGSTNYADSVKGGFTISRDNAKNTVYLQMNSLKPEDTSVYYCAAVPGWVRQADGWVLSLLDYWGQGTQVTVSS	low polyreactivity
QVQLVESGGGLVQAGGSLRLSCAASGSIFSGNTMGCYRQAPGKERELVAAISGRGSNTYYADSVKGRFTISRDNAKNTVYLQMNSLKPEDTAVYYCAGPWVVRRTAYDYWGQGTQVTVSS	high polyreactivity
QVQLVESGGGLVQAGGSLRLSCAASGSIFSGYAMGWYRQAPGKERELVAAITWRAASTYYADSVKGRFTISRDNAKNTVYLQMNSLKPEDTAVYYCAKEGWPKPAFYYWGQGTQVTVSS	low polyreactivity
QVQLVESGGGLVQAGGSLRLSCAASGSIFSGYTMGWYRQAPGKERELVAAISSDGSTTYADSVKGRFTISRDNAKNTVYLQMNSLKPEDTAVYYCAAYPYWDGSYGGYDYWGQGTQVTVSS	low polyreactivity
QVQLVESGGGLVQAGGSLRLSCAASGSIFSGYVKGWYRQAPGKDMELVAAISGSGGSTYYADSVKGRFTISRDNAKNTVYFQMNSLKPEDTAVYYCNVDRSPTHIVGYGYWGQGTQVTVSS	low polyreactivity
QVQLVESGGGLVQAGGSLRLSCAASGSIFSGYVMGWYRQAPGKERELVAAISGSGGSTYYADSVKGRFTISRDNAKNTVYLQMNSLNPEDTAVYYCNKGLSRSYWWVDYWGQGTQVTVSS	low polyreactivity
QVQLVESGGGLVQAGGSLRLSCAASGSIFSGYVMGWYRQAPGKERELVAAISSGGSTYYADSVKGRFTISRDNAKNTVYLQMNSLKPEDTAVYYCAARSRKYGLLFYYWGQGTQVTVSS	high polyreactivity
QVQLVESGGGLVQAGGSLRLSCAASGSIFSHNAMGWYRQAPGKERELVASMTGSGGSTYYADSVKGRFTISRDNAKNTVYLHMNSLKPEDTAVYYCAADSYGRSETEDDYWGQGTQVTVSS	low polyreactivity
QVQLVESGGGLVQAGGSLRLSCAASGSIFSHYAMGWYRQAPGKERELVAAISRSGGSTYYADSVKGRFTISRDNAKNTVYLQMNSLKPEDTAVYYCAKEGDSGYWFDYWGQGTQVTVSS	low polyreactivity
QVQLVESGGGLVQAGGSLRLSCAASGSIFSINAMGWYRQAPGKERELVAVISWIGGNTYYADSVKGRFTISRDNAKNTVYLKMNSLKPEDTAVYYCAVATGPVSYRRYYCGQGTQVTVSS	high polyreactivity
QVQLVESGGGLVQAGGSLRLSCAASGSIFSKNAMGWYRQAAGKEWEWVAAISRSAGSTYYADSVKGRFTISRDNAKNTVYLQMNSLKPEDTAVYYCAAEGYRWVTAYYDYDEDYWGQGTQVTVSS	low polyreactivity
QVQLVESGGGLVQAGGSLRLSCAASGSIFSKYAMGWYRQAPGKERELVAAIDWSGGSTYYADSVKGRFTISRDNAKNTVYLQMNSLKPEDTAVYYCNAEYVVADYGYYTIEFDYWGQGTQVTVSS	low polyreactivity
QVQLVESGGGLVQAGGSLRLSCAASGSIFSKYTMGWYRQAPGKERELVAAIRGSGVRTYYADSVKGRFTISRDNAKNTVYLQMNSLKPEDTAVYYCAKVVYRGKVALWISSTAGSDYWGQGTQVTVSS	low polyreactivity
QVQLVESGGGLVQAGGSLRLSCAASGSIFSLYAMGWYRQAPGKERELVAAISRGGSTNYADSVKGRFTISRDNAKNTVYLQMNSLKPEDTAVYYCNAGFGVRRKHITFYTWYDYWGQGTQVTVSS	low polyreactivity
QVQLVESGGGLVQAGGSLRLSCAASGSIFSLYAMGWYRQAPGKERELVAAISSSGTSTYYADSVKGRFTISRDNAKNTVYLQMNSLKPEDTAVYYCNAYREFDWGQGTQVTVSS	high polyreactivity
QVQLVESGGGLVQAGGSLRLSCAASGSIFSLYAMGWYRQAPGKERELVTAITSGGRTKYADSVKGRFTISRDNAKNTVYLQMNSLKPEDTAVYYCAARDDSEKRYLTQYAYNYWGQGTQVTVSS	low polyreactivity
QVQLVESGGGLVQAGGSLRLSCAASGSIFSPNAMGWYRQAPGKEMELVPRITSGGSTFYADSVKGRFTISRDYAKNTVYLQMYSLKPEDTAVSYCAAVQTRYTSVFSSTRYDYWGQGTQVTVSS	low polyreactivity
QVQLVESGGGLVQAGGSLRLSCAASGSIFSPNAMGWYRQAPGKERELVAAITDSGGSTYYADSVKGRFTISRDNAKNTVYLQMNSLKPEDTAVYYCAVATGLLYKSHGYWGQATQVTVSS	low polyreactivity
QVQLVESGGGLVQAGGSLRLSCAASGSIFSPNAMGWYRQAPGKERELVAAITRGGSTYYADSVKGRFTISRDNAKKTVYLQMNSLKPEDTAVYYCAKRSKQFSTQYLYGYWGQGTQVTVSS	low polyreactivity
QVQLVESGGGLVQAGGSLRLSCAASGSIFSPNDMGWYRQAPGKERELVAAITSAGSTYYADSVKGRFTISRDNAKNTVYLQMNSLKPEDTAVYYCSASYISVTDYAYFPLWYGYWGQGTQVTVSS	low polyreactivity
QVQLVESGGGLVQAGGSLRLSCAASGSIFSPNDMGWYRQAPGKERELVAAITTAGSTYYADSVKGRFTISRDTAKNTVYLQMNSLKPEDTAVYYCAATYISVTDYAYFPLWYGYWGEGTQVTVSS	low polyreactivity
QVQLVESGGGLVQAGGSLRLSCAASGSIFSPYAMGWYRQAPGKEREFVAAITWSDGGTYADSVKGRFTISRDNAKNTVYLQMNSRKPEDTAVYYCAAKLASYLVTGMDYWGQGTQVTVSS	low polyreactivity
QVQLVESGGGLVQAGGSLRLSCAASGSIFSPYAMGWYRQAPGKERELVAAISYGVGNTYYADSVKGRFTISRDNAKNTVYLQMNSLKPEDTAVYYCAAEEYDYVYPHYFTKGYYWGQGTQVTVSS	high polyreactivity
QVQLVESGGGLVQAGGSLRLSCAASGSIFSQKAMVWYRQAPGKERELVASISTGDSSTYADSVKGRFTISRDNAKNTVYLQMNSLKREDTAVYYCNAYRYNALPWRYVGYDYWGQGTQVTVSS	low polyreactivity
QVQLVESGGGLVQAGGSLRLSCAASGSIFSQNAIGWYRQAPGKEMELVAAISSSGTRTYYADSVKGRFTISRDHAKNTVYLQMNSLKPEDTAVYYCNKVLFRPRFFVRSDYWGQGTQVSVSS	high polyreactivity

— the nanobody polyreactivity screen of Harvey et al. (2022)
